Square brackets hold non-standard residues; d marks the D form. Peptide text beside a SMILES is read from it. * marks the point of attachment. Oic = O=C(O)[C@@H]1C[C@@H]2CCCC[C@@H]2N1; Cha = N[C@@H](CC1CCCCC1)C(=O)O; Tle = CC(C)(C)[C@H](N)C(=O)O; Nicotinoyl = O=C(c1cccnc1)*; Acm = CC(=O)NC*
Columns and labels:
[1] = MultiTox-Fluor Multiplex Cytotoxicity Assay, RAW 264.7 cells; assay type: cell-based; conditions: mouse, 24 h co-culture, read-out: LD50, RAW cells
Procedure: (§1) Experiments were carried out using MultiTox-Fluor Multiplex Cytotoxicity Assay (Promega Corp., Madison, Wis.) as previously described. This assay simultaneously measures the number of live and dead cells in culture wells based on the activity of two proteases, one a marker of cell viability, and the other a marker of cytotoxicity, which yield products with different excitation and emission spectra. Briefly, for cytotoxicity experiments murine LCC (or RAW 264.7) cells were plated in a 96-well plate at a density of 1×10^4 cells/well in a total volume of 50 μl of culture media and treated with various concentrations of tested peptides (50 μl of 0-400 μM peptides in culture media). Cells' viability was assessed 24 h later by MultiTox-Fluor Multiplex Cytotoxicity Assay (incubation time 1 h). For cell viability experiments, LCC cells were plated in a 96-well plate at a density of 5×10^3 cells/well in a total volume of 50 μl of culture media and treated with various concentrations of tested peptide (50 μl of 0-200 μM peptide in culture media) for 1 hour prior to 0, 2, 4 Gy irradiation. Cell viability was assessed 72 h later by MultiTox-Fluor Multiplex Cytotoxicity Assay (incubation time 1 h). All experiments were carried out in triplicates.

[2] = MultiTox-Fluor Multiplex Cytotoxicity Assay, LLC cells; assay type: cell-based, murine; conditions: mouse, Lewis lung carcinoma (LLC) cells; 24 h co-culture; read-out: LD50, LLC cells
Procedure: as §1

in vitro = conditions: for peptide concentration remaining in human serum ± SEM (AUC): 37° C.
Procedure: Serum stability. Human blood serum was prepared using BD Vacutainer→Rapid Serum Tubes (RST) (BD Diagnostics, Franklin Lakes, N.J.) according to manufacturer's recommendations. Serum was harvested and either used fresh or stored at −80° C. Stability of the AzV36-NicL in the human serum was determined as previously described. Briefly, 50 μl of an aqueous peptide stock solution (10 mg/ml) was added to 1.95 ml of 25% pooled, non-heat inactivated human serum in PBS and incubated at 37° C. […] The resulting mixtures were kept at 5° C. for 10 min and then centrifuged at 300 g for 5 min. 100 μl of the supernatants were analyzed using analytical ProStar 210 HPLC system with a ProStar 325 Dual Wavelength detector set at 220 nm and 280 nm (Varian Inc., Palo Alto, Calif.). The mobile phases were: Solvent A, 0.1% TFA (trifluoroacetic acid) in water; solvent B, 0.1% TFA in acetonitrile. Experiments were performed using Vydac 218TP54 C18 column, 4.6×250 mm, 5 μM (Grace Vydac, Hesperia, Calif.) in a linear 0 to 100% gradient of solvent B applied over 100 min at 1 ml/min.

rhEphA2 = rhEphA2 (Homo sapiens, UniProt P29317); assay: SPR binding to immobilized rhEphA2 (Biacore 3000); design: purchased R&D Systems, Inc., Minneapolis, Minn
Procedure: Binding to selected ephrin receptors was measured by surface plasmon resonance on a Biacore3000 instrument. Commercially available ephrin receptors: EphA2, EphB2 and EphB4 (R&D Systems) were immobilized on a CM-5 chip by amine coupling and tested peptides were passed over a chip surface as analytes.
Binding studies. Binding studies were performed by surface plasmon resonance (SPR) on a BIAcore 3000 system (BiaCore AB, Piscataway, N.J.). BIAcore CM5 sensor chips were utilized in all experiments. Binding studies were performed in HBS-EP running buffer (pH=7.4) containing 10 mM HEPES, 150 mM NaCl, 3 mM EDTA, and 0.005% polysorbate 20. Commercially available ephrin receptors: EphA2, EphB2 and EphB4 (R&D Systems, Inc., Minneapolis, Minn.) were immobilized on a CM5 sensor chip using the amine coupling method. The chip was activated by mixing 400 mM N-ethyl-N-(3-dimethylaminopropyl)-carbodiimide hydrochloride and 100 mM N-hydroxysuccinimide. Residual reactive groups on the chip surface were blocked using 1.0 M ethanolamine/HCl (pH=8.5). The flow cell-1 chip, which served as a control, lacked immobilized protein but was treated with N-ethyl-N-(3-dimethylaminopropyl)-carbodiimide hydrochloride, N hydroxysuccinimide, and ethanolamine/HCl. Binding signals were corrected for nonspecific binding by subtracting the flow cell-1 signal (blank surface). To regenerate chip surfaces, bound ligands were removed with 10 mM HCl. Data were analyzed with BIAevaluation 4.1 software (Biacore, Piscataway, N.J.).

[3] = human, 25% pooled, non-heat inactivated human serum in PBS

In the case of CC(=O)NCSC[C@H](NC(=O)[C@H](CC1CCCCC1)NC(=O)[C@H](CC1CCCCC1)NC(=O)[C@@H](CCCCNC(=O)c1cccnc1)NC(=O)[C@@H](N)Cc1ccc(O)cc1)C(=O)N[C@H](C(=O)N[C@@H](CC1CCCCC1)C(=O)N1[C@H](C(=O)N[C@H](CCCNC(=N)N)C(=O)N[C@@H](Cc2c[nH]cn2)C(=O)N[C@@H](CCCNC(=N)N)C(=O)N[C@H](C(=O)N[C@@H](CC2CCCCC2)C(=O)N[C@@H](CSCNC(C)=O)C(=O)N[C@H](CCCCN)C(N)=O)[C@@H](C)O)C[C@@H]2CCCC[C@@H]21)C(C)(C)C [AzV36-NicL, YkNic-Cha-Cha-Cam-Tle-Cha-Oic-rHRT-Cha-Cam-k-CONH] (H-Y[dK](Nicotinoyl)[Cha][Cha]C(Acm)[Tle][Cha][Oic][dR]HRT[Cha]C(Acm)[dK]-NH2), the CC50 at 24 h [1] is reported as 10.3 ± 0.78 µM, the CC50 at 24 h [2] is reported as 17 ± 2.84 µM and the “peptide concentration remaining in human serum ± SEM (AUC)” value (in vitro; 24 h, 25% human serum in PBS) is reported as 100±0.64%. The “peptide concentration remaining in human serum ± SEM (AUC)” value (in vitro; 6 days) was 97.8±2.86%, the remaining at 24 h, 0.25 mg/ml (in vitro; [3]) was 100 ± 0.64% and the remaining at 144 h, 0.25 mg/ml (in vitro; [3]) was 97.8 ± 2.86%. For the same compound, the Kd (rhEphA2) was 0.0139 ± 0.0029 µM.

From patent US8716246B2, “Azuvirin peptides” (The Regents of the University of California, priority 2011, dated 2014)
